Data from US20210063414A1, “METHODS FOR PREVENTING AND/OR TREATING BONE LOSS CONDITIONS BY MODULATING IRISIN” (Dana-Farber Cancer Institute, Inc., priority 2018, published 2021).

How the values were obtained:
Test in all cases: Crosslinking/co-immunoprecipitation/mass spectrometry (TMT quantitative proteomics) to identify irisin receptors
Assay type in all cases: binding
[1] = target: T1, MLO-Y4 cell surface proteins (Mus musculus, UniProt Q921G7); settings: co-precipitated protein Etfdh (ETFD_MOUSE)
T1 construct: endogenous in cells; host or cells: MLO-Y4
T1 sequence (Q921G7 33-616): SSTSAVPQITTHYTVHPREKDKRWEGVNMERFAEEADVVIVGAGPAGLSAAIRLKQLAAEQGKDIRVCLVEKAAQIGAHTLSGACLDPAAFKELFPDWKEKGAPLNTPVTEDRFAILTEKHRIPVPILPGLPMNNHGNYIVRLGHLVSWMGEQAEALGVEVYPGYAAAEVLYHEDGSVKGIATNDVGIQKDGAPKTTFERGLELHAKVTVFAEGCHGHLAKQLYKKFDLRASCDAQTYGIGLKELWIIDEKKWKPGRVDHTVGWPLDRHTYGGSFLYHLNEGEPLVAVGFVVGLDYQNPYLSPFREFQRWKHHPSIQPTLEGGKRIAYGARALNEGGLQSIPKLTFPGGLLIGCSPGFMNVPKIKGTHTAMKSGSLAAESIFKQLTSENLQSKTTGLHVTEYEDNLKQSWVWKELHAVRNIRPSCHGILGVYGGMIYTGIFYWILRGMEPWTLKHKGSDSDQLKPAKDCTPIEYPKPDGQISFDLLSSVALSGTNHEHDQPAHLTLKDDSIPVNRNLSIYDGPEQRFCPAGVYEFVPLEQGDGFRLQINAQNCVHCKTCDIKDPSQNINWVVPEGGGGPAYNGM
How it was run: (§1)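 Relative protein abundance came from 6-plex TMT MS3 quantitation on an Orbitrap Fusion Lumos, after in-gel trypsin digestion of Coomassie-stained SDS-PAGE lanes. Input was a Ni-NTA pulldown (250 mM imidazole elution) of lysates from murine MLO-Y4 cells. These cells were treated on ice with His-tagged irisin or adipsin (10 nM, 20 min) in serum-free medium, then crosslinked with 1.5 mM DTSSP for 30 min.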

[2] = target: T2, MLO-Y4 cell surface proteins (Mus musculus, UniProt P09671); settings: co-precipitated protein Sod2 (SODM_MOUSE)
T2 construct: endogenous in cells; host or cells: MLO-Y4
T2 sequence (P09671 25-222): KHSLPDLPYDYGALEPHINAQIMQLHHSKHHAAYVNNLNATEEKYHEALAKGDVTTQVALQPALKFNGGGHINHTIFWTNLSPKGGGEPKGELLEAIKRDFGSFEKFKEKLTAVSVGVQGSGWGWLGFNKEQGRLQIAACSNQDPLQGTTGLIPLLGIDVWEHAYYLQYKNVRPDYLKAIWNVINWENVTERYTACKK
How it was run: as §1

[3] = target: T3, MLO-Y4 cell surface proteins (Mus musculus, UniProt Q99LC5); settings: co-precipitated protein Etfa (ETFA_MOUSE)
T3 construct: endogenous in cells; host or cells: MLO-Y4
T3 sequence (Q99LC5 20-333): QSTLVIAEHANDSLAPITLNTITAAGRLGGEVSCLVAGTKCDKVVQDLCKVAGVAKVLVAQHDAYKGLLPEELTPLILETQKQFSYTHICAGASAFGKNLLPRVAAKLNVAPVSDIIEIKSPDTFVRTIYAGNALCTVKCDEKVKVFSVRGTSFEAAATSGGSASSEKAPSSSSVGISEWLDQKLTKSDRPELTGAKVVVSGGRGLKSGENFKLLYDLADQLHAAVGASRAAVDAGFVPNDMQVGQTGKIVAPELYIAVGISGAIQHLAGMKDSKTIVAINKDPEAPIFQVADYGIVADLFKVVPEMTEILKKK
How it was run: as §1

B1: irisin: secreted cleaved form of FNDC5; recombinant human/mouse irisin with C-terminal his tag produced in HEK293 cells (protein)
chain: DSPSAPVNVTVRHLKANSAVVSWDVLEDEVVIGFAISQQKKDVRMLRFIQEVNTTTRSCALWDLEEDTEYIVHVQAISIQGQSPASEPVLFKTPREAEKMASKNKDEVTMKE
modifications: left off: small tags and cut ends
notes: secreted cleaved form of FNDC5; recombinant human/mouse irisin with C-terminal his tag produced in HEK293 cells
In the case of B1, the TMT signal-to-noise ratio [1] is reported as 30.6918, the “irisin/adipsin TMT signal-to-noise ratio” value [1] is reported as 0.532 and the TMT signal-to-noise ratio [2] is reported as 472.133. For the same molecule, the “irisin/adipsin TMT signal-to-noise ratio” value [2] was 0.458, the TMT signal-to-noise ratio [3] was 44.9816 and the “irisin/adipsin TMT signal-to-noise ratio” value [3] was 0.561.
